Bridges are numbered along the chain shown (N, C = ends). Where no end group is shown, it is not given here.
T1: alpha subunit of the human FcεRI receptor (IgE high affinity receptor), expressed on Chinese hamster ovary … (human, UniProt P12319 26-257)
T1 construct: whole, on cells; also called CHO FcεRI+ cells; FcεRIα
T1 sequence (looked up): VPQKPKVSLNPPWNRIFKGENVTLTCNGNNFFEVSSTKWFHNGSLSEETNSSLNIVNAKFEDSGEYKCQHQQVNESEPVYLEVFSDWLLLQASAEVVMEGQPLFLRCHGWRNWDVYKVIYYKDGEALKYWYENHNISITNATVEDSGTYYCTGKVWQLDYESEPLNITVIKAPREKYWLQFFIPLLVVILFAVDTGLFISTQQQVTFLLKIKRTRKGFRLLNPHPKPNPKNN


Biological target: T1, alpha subunit of the human FcεRI …
Test: inhibition of 125I-IgE binding to CHO cells expressing human FcεRI alpha; competitor IgE
Protocol: To determine the ability of peptides to inhibit IgE binding to FcεRI, a cell-based binding assay was used with radiolabeled IgE. Chinese hamster ovary cells expressing the alpha subunit of the human FcεRI receptor were cultured overnight in Falcon 96 well microtiter plates at a concentration of 5 ×10^4 cells per well. The following day the cells were rinsed three times with PBS and then once with F12/DMEM. Peptide stocks were reconstituted in 100 mM Hepes buffered water, pH 7.2, at a concentration of 5 mg/mL. Working concentrations of the peptide were diluted in assay buffer (see below). 75 uL of a desired concentration of peptide was added to the top row of a separate 96 well microtiter plate and serially diluted 1:3 in 50 uL of the assay buffer (F12/DMEM, 1% BSA, 0.05% NaN_3 and 0.025 mM Hepes pH 7.2). Starting concentrations ranged from 50–500 uM. Next, 50 uL of the diluted peptide was transferred to the 96 microtiter well plate containing a monolayer of CHO FcεRI+ cells. […] Cells were […]

| Binder | IC50 [nM] |
| --- | --- |
| ALCPAVCYV-NH2 (disulfide 3-7 (inferred); also: synthesized as monomer, spontaneously formed a dimer) [IGE037] | 251000 |
| ALCPAVCYV-NH2 (also: antiparallel disulfide-linked homodimer, interchain C3-C7' and C7-C3', also called antiparallel covalent dimer of IGE037) [IGE089] | 64000 |
| VVCPNMCYVGGKALCPDVCYV-NH2 (not fully specified (bridges); cysteine pairing not given here) [IGE121] | 340 |
| VQCPHFCYELDYELCPDVCYV-NH2 (not fully specified (bridges); cysteine pairing not given here) [IGE134] | 32 |
| VQCPHFCYELDYELCPWKCYT-NH2 (not fully specified (bridges); cysteine pairing not given here) [IGE174] | 172 |
| VQCPHFCYELDYELCPDKCYT-NH2 (not fully specified (bridges); cysteine pairing not given here) [IGE173] | 61 |
| VKCPSLCYVGGKALCPDVCYV-NH2 (not fully specified (bridges); cysteine pairing not given here) [IGE123] | 180 |
| VPCPELCYVGGKALCPDVCYV-NH2 (not fully specified (bridges); cysteine pairing not given here) [IGE124] | 890 |
| KSCPLWCYVGGKALCPDVCYV-NH2 (not fully specified (bridges); cysteine pairing not given here) [IGE128] | 240 |
| VQCPHFCYVGGKVQCPHFCYV-NH2 (not fully specified (bridges); cysteine pairing not given here) [IGE131] | 2300 |
| VQCPHFCYVGGHALCPDVCYVGR (not fully specified (bridges); cysteine pairing not given here, produced as Z-domain fusion in E. coli and released with trypsin) [IGE132] | 80 |
| VQCPDFCYVGGHALCPDVCYVGR (not fully specified; cysteine pairing not given here, produced as Z-domain fusion in E. coli and released with trypsin) [IGE145] | 117 |
| VQCAHFCYVGGHALCPDVCYVGR (disulfide (positions not given here), produced as Z-domain fusion in E. coli and released with trypsin) [IGE142] | 1000 |
| VQCPHFCYVGGKALCPDVCYV-NH2 (not fully specified (bridges); cysteine pairing not given here) [IGE122] | 170 |
| VQCPHFCYVGGKALCPDPCYV-NH2 (cysteine pairing not given here) [IGE149] | 166 |
| VQCPHFCYVGGKALCPDKCYV-NH2 (cysteine pairing not given here) [IGE147] | 158 |
| VQCPHFCYVGGKALCPDVCDV-NH2 (not fully specified (bridges); cysteine pairing not given here) [IGE150] | 1230 |
| VQCPHFCYVGGKALCPDKCYT-NH2 (cysteine pairing not given here) [IGE148] | 94 |
| NGCPGWCYVGGKALCPDVCYV-NH2 (disulfide 7-15, 3-19; N-terminus assumed; SMILES CC(C)C[C@@H]1NC(=O)[C@H](C)NC(=O)[C@H](CCCCN)NC(=O)CNC(=O)CNC(=O)[C@H](C(C)C)NC(=O)[C@H](Cc2ccc(O)cc2)NC(=O)[C@@H]2CSSC[C@H](NC1=O)C(=O)N1CCC[C@H]1C(=O)N[C@@H](CC(=O)O)C(=O)N[C@@H](C(C)C)C(=O)N[C@H](C(=O)N[C@@H](Cc1ccc(O)cc1)C(=O)N[C@H](C(N)=O)C(C)C)CSSC[C@H](NC(=O)CNC(=O)[C@@H](N)CC(N)=O)C(=O)N1CCC[C@H]1C(=O)NCC(=O)N[C@@H](Cc1c[nH]c3ccccc13)C(=O)N2) [IGE119] | 1400 |
| ALCPDVCYVGGKVQCPHFCYV-NH2 (disulfide 7-15, 3-19; N-terminus assumed; SMILES CC(C)C[C@H](NC(=O)[C@H](C)N)C(=O)N[C@H]1CSSC[C@@H](C(=O)N[C@@H](Cc2ccc(O)cc2)C(=O)N[C@H](C(N)=O)C(C)C)NC(=O)[C@H](Cc2ccccc2)NC(=O)[C@H](Cc2c[nH]cn2)NC(=O)[C@@H]2CCCN2C(=O)[C@@H]2CSSC[C@H](NC(=O)[C@H](C(C)C)NC(=O)[C@H](CC(=O)O)NC(=O)[C@@H]3CCCN3C1=O)C(=O)N[C@@H](Cc1ccc(O)cc1)C(=O)N[C@@H](C(C)C)C(=O)NCC(=O)NCC(=O)N[C@@H](CCCCN)C(=O)N[C@@H](C(C)C)C(=O)N[C@@H](CCC(N)=O)C(=O)N2) [IGE130] | 250 |
| ALCPAVCYVGGKALCPDVCYV-NH2 (disulfide 7-15, 3-19; N-terminus assumed; SMILES CC(C)C[C@H](NC(=O)[C@H](C)N)C(=O)N[C@H]1CSSC[C@@H](C(=O)N[C@@H](Cc2ccc(O)cc2)C(=O)N[C@H](C(N)=O)C(C)C)NC(=O)[C@H](C(C)C)NC(=O)[C@H](CC(=O)O)NC(=O)[C@@H]2CCCN2C(=O)[C@@H]2CSSC[C@H](NC(=O)[C@H](C(C)C)NC(=O)[C@H](C)NC(=O)[C@@H]3CCCN3C1=O)C(=O)N[C@@H](Cc1ccc(O)cc1)C(=O)N[C@@H](C(C)C)C(=O)NCC(=O)NCC(=O)N[C@@H](CCCCN)C(=O)N[C@@H](C)C(=O)N[C@@H](CC(C)C)C(=O)N2) [IGE083] | 1100 |
| VTCPRWCYVGGKALCPDVCYV-NH2 (cysteine pairing not given here) [IGE126] | 380 |
| IVCPRLCYVGGKALCPDVCYV-NH2 (not fully specified (bridges); cysteine pairing not given here) [IGE120] | 290 |
| IVCARLCYVGGKALCPDVCYV-NH2 (not fully specified (bridges); cysteine pairing not given here) [IGE127] | 13000 |
